Measurements from article PMC5378721, “The Proteasomal ATPases Use a Slow but Highly Processive Strategy to Unfold Proteins” (Frontiers in Molecular Biosciences, 2017).
Values belong to the molecule of their own block, whether it stands above or below them.

Legend:
[1] = molecular target: T1, PAN (Proteasome Activating Nucleotidase), with T20S (Methanocaldococcus jannaschii, UniProt Q58576); experiment: GFPssrA unfolding, loss of fluorescence […], ATPγS:ATP ratio series; assay type: biochemical; details: competing with ATP, 2 mM total nucleotide, 0.2 μM GFPssrA, 400 nM T20S, 20 mM MgCl2, pH 7.5
T1 construct: homohexamer; with Proteasome subunit alpha (20S proteasome of Thermoplasma acidophilum, T20S); Proteasome subunit beta (20S proteasome of Thermoplasma acidophilum, T20S)
T1 sequence (P25156 whole entry partner, one chain of several): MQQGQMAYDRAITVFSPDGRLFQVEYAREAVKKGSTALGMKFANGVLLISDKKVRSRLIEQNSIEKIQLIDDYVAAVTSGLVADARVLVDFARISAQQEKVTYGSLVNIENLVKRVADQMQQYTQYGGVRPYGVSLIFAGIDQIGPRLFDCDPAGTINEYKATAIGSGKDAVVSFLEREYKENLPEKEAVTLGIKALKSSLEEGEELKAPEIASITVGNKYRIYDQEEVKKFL
T1 sequence (P28061 9-211 partner, one chain of several): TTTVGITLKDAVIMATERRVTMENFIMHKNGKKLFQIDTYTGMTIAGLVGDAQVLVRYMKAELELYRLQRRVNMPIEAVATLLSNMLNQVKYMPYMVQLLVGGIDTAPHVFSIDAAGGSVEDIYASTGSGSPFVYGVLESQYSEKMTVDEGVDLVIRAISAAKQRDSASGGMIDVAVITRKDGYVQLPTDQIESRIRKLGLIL

[2] = molecular target: PAN (Proteasome Activating Nucleotidase) (UniProt Q58576)
[3] = substrate: Nc1ncnc2c1ncn2[C@@H]1O[C@H](COP(=O)(O)OP(=O)(O)OP(=O)(O)O)[C@@H](O)[C@H]1O; experiment: purified protein; assay type: biochemical, Methanocaldococcus jannaschii; details: 0.2 μM GFPssrA, 400 nM T20S, 20 mM MgCl2, pH 7.5, ATP hydrolysis read-out, printed unit doubtful: ATP was varied 0–3 mM, so mM likely meant

Molecule: Nc1ncnc2c1ncn2[C@@H]1O[C@H](COP(=O)(O)OP(=O)(O)OP(O)(O)=S)[C@@H](O)[C@H]1O [ATPγS]
- GFPssrA unfolding, loss of fluorescence 485/510, ATPγS:ATP ratio series [1]: as the ATPγS:ATP ratio increased, GFPssrA unfolding rate decreased

- Km for GFPssrA in ATP-dependent unfolding by PAN (steady-state loss of GFP fluorescence, ex/em 485/510; GFPssrA 0 to 10 μM, 50 nM PAN, 400 nM T20S, 2 mM ATP) [2]: 0.187 µM
Molecule: GFPssrA (GFP with an unstructured ssrA tag)

B1: PAN (Proteasome Activating Nucleotidase), with T20S (Methanocaldococcus jannaschii DSM 2661) (protein)
chain: MVFEEFISTELKKEKKAFTEEFKEEKEINDNSNLKNDLLKEELQEKARIAELESRILKLELEKKELERENLQLMKENEILRRELDRMRVPPLIVGTVVDKVGERKVVVKSSTGPSFLVNVSHFVNPDDLAPGKRVCLNQQTLTVVDVLPENKDYRAKAMEVDERPNVRYEDIGGLEKQMQEIREVVELPLKHPELFEKVGIEPPKGILLYGPPGTGKTLLAKAVATETNATFIRVVGSELVKKFIGEGASLVKDIFKLAKEKAPSIIFIDEIDAIAAKRTDALTGGDREVQRTLMQLLAEMDGFDARGDVKIIGATNRPDILDPAILRPGRFDRIIEVPAPDEKGRLEILKIHTRKMNLAEDVNLEEIAKMTEGCVGAELKAICTEAGMNAIRELRDYVTMDDFRKAVEKIMEKKKVKVKEPAHLDVLYR
notes: homohexamer; with Proteasome subunit alpha (20S proteasome of Thermoplasma acidophilum, T20S); Proteasome subunit beta (20S proteasome of Thermoplasma acidophilum, T20S)
- Km [3]: 0.000397 ± 1.7e-05 mM
